Measurements as given in patent publication US20260232800A1 (ADAPTIMMUNE, published 2026).

Target: complex of PRAME peptide … (SEQ ID NO: 1) and HLA-A*02:01, presented on peptide-pulsed T2 cells (human)
Assay: cell-based or functional assay

Row | Binder | EC50 (peptide concentration required to induce half-maximal T-cell activation; IFNγ supernatant ELISA, transduced primary T cells with peptide-pulsed T2 cells)
1 | TCR 9 (ADB02780_107) (TCR, V domains shown) V domain 1: GQQLNQSPQSMFIQEGEDVSMNCTSSSIFMTWLWYKQDPGEGPVLLIALYKAGELTSNGRLTAQFGITRKDSFLNISASIPSDVGIYFCAGQASGTYKYIFGTGTRLKVLA V domain 2: EAQVTQNPRYLITVTGKKLTVTCSQNMNHEYMSWYRQDPGLGLRQIYYSINVEVTDKGDVPEGYKVSRKEKRNFPLILESPSPNQTSLYFCASSHGTSGEQYFGPGTRLTVT | -7.8 log10 M
2 | TCR 5 (ADB02780_063) (TCR, V domains shown) V domain 1: GQQLNQSPQSMFIQEGEDVSMNCTSSSIFETWLWYKQDPGEGPVLLIALYKAGELTSNGRLTAQFGITRKDSFLNISASIPSDVGIYFCAGQASGTYKYIFGTGTRLKVLA V domain 2: EAQVTQNPRYLITVTGKKLTVTCSQNMNHEYMSWYRQDPGLGLRQIYYSINVEVTDKGDVPEGYKVSRKEKRNFPLILESPSPNQTSLYFCASSHGTSGEQYFGPGTRLTVT | -8.8 log10 M
3 | TCR 8 (ADB02780_106) (TCR, V domains shown) V domain 1: GQQLNQSPQSMFIQEGEDVSMNCTSSSIFATWLWYKQDPGEGPVLLIALYKAGELTSNGRLTAQFGITRKDSFLNISASIPSDVGIYFCAGQASGTYKYIFGTGTRLKVLA V domain 2: EAQVTQNPRYLITVTGKKLTVTCSQNMNHEYMSWYRQDPGLGLRQIYYSINVEVTDKGDVPEGYKVSRKEKRNFPLILESPSPNQTSLYFCASSHGTSGEQYFGPGTRLTVT | -7.8 log10 M

More lines, now with the values ahead:

Row | EC50 (peptide concentration required to induce half-maximal T-cell activation; IFNγ supernatant ELISA, transduced primary T cells with peptide-pulsed T2 cells) | Binder
4 | -7.8 log10 M | TCR 3 (ADB02780_025) (TCR, V domains shown) V domain 1: GQQLNQSPQSMFIQEGEDVSMNCTSSSIFNTWLWYKQDPGEGPVLLIALYKAGELTSNGRLTAQFGITRKDSFLNISASIPSDVGIYFCAGQASGTYKYIFGTGTRLKVLA V domain 2: EAQVTQNPRYLITVTGKKLTVTCSQNMNHEYMSWYRQDPGLGLRQIYYSINVEVTDKGDVPEGYKVSRKEKRNFPLILESPSPNQTSLYFCASSHGTSGEQYFGPGTRLTVT
5 | -8.7 log10 M | TCR 7 (ADB02780_077) (TCR, V domains shown) V domain 1: GQQLNQSPQSMFIQEGEDVSMNCTSSSIFHTWLWYKQDPGEGPVLLIALYKAGELTSNGRLTAQFGITRKDSFLNISASIPSDVGIYFCAGQASGTYKYIFGTGTRLKVLA V domain 2: EAQVTQNPRYLITVTGKKLTVTCSQNMNHEYMSWYRQDPGLGLRQIYYSINVEVTDKGDVPEGYKVSRKEKRNFPLILESPSPNQTSLYFCASSHGTSGEQYFGPGTRLTVT
6 | -8.8 log10 M | TCR 6 (ADB02780_070) (TCR, V domains shown) V domain 1: GQQLNQSPQSMFIQEGEDVSMNCTSSSIFVTWLWYKQDPGEGPVLLIALYKAGELTSNGRLTAQFGITRKDSFLNISASIPSDVGIYFCAGQASGTYKYIFGTGTRLKVLA V domain 2: EAQVTQNPRYLITVTGKKLTVTCSQNMNHEYMSWYRQDPGLGLRQIYYSINVEVTDKGDVPEGYKVSRKEKRNFPLILESPSPNQTSLYFCASSHGTSGEQYFGPGTRLTVT
7 | -8.7 log10 M | TCR 4 (ADB02780_062) (TCR, V domains shown) V domain 1: GQQLNQSPQSMFIQEGEDVSMNCTSSSIFLTWLWYKQDPGEGPVLLIALYKAGELTSNGRLTAQFGITRKDSFLNISASIPSDVGIYFCAGQASGTYKYIFGTGTRLKVLA V domain 2: EAQVTQNPRYLITVTGKKLTVTCSQNMNHEYMSWYRQDPGLGLRQIYYSINVEVTDKGDVPEGYKVSRKEKRNFPLILESPSPNQTSLYFCASSHGTSGEQYFGPGTRLTVT
